For the test, the target named is T1, CD73 protein from lysates of U138 glioblastoma cells (human, UniProt P21589 27-549).
T1 construct: Same endogenous protein as m2, but solubilised in cell lysate for immunoprecipitation
T1 sequence (looked up): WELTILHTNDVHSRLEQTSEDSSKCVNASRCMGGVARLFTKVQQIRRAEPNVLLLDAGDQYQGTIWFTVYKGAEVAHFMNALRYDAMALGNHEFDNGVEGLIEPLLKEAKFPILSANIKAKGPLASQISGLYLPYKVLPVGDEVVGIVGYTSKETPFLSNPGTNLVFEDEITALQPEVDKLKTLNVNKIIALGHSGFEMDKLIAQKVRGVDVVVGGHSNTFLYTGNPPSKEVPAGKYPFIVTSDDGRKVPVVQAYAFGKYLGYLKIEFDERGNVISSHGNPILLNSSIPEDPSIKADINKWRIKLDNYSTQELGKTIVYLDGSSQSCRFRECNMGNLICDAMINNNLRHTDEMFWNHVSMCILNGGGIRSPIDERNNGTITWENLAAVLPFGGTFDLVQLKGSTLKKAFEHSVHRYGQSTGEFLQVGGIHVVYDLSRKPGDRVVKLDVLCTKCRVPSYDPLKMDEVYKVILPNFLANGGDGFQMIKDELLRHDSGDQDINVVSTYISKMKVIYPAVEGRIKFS
Nature of the test: immunoprecipitation from cell lysate, immunoblot with a commercial CD73 mAb. The method, then:
In this example, mAb 22E6 binding affinity was characterized (FIG. 3). It was shown that mAb 22E6 recognizes CD73 protein on cancer cells. Using a special flow cytometry technique, a fluorescence-activated cell sorting (FACS) with 22E6 and an anti-rat-IgG-specific, fluorophore-labeled secondary mAb, it was shown that the protein recognized by the 22E6 mAb of the invention is present on the surface of human cancer cells of a total of approx. 30 tested cell lines. U138 MG and GBM20 are glioblastoma cell lines, MDA-MB231 and T47D are human breast cancer cell lines. In order to compare the specificity of mAb 22E6 with the specificity of a commercial CD73 mAb an immunoblot with the same cell lines (U138 MG, GBM20, MDA-MB231 and T47D) was performed using the commercial CD73 mAb as shown in FIG. 3B.
A general note: A western blot detects proteins with antibodies after separation by electrophoresis.

B1: mAb 22E6 (antibody, V domains shown)
VH: EVQLVESGGGLVQPGRSMKLSCAASGFTFSFYYMAWVRQAPTKGLEWVASISTGGGNTYYRDSVKGRFTISRDDAKSTLYLQMDSLRSEETATYYCARHGGDYYGYRGGYFDYWDQGVMVTVSS
VL: DIQMTQTPSSMPASLGERVTISCRASQGINNYLNWYQQKPDGTIKPLIYYTSNLQSGVPSRFSGSGSGTDYSLTISSLEPEDFAMYYCQQYDNSPYTFGAGTKLELK
notes: Rat monoclonal antibody from a hybridoma (rats immunized with EVs of the glioblastoma line GBM20); It was detected with an anti-rat-IgG secondary mAb; also called 22E6 mAb; monoclonal antibody termed "22E6"
As for B1, the binding result is “binds”.

The values are drawn from patent publication US20200148781A1 (HELMHOLTZ ZENTRUM M NCHEN DEUTSCHES FORSCHUNGSZENTRUM F R …, published 2020).
